In test [1] the target is shClpP1 alone (sample of Fig. S1A) (Streptomyces hawaiiensis NRRL 15010). The test is described as follows: not stated; Fig. S1A (not shown): purified proteins in solution; a shClpP1 sample was also put on cryo-EM grids.
In test [2] the target is ClpC1 (NTD residues 1-156 removed, E284A/E622A/F440A) (Streptomyces hawaiiensis NRRL 15010). Put plainly: cryo-EM structure; ClpC1 added to the pre-formed shClpP1P2 complex with fluorescein-labeled casein and ATP; conformations A (2.94 Å) and B (3.0 Å), C1.
The target in test [3] is shClpP1 (first 29 residues removed, S113A) (Streptomyces hawaiiensis NRRL 15010). Put plainly: cryo-EM structure; apo shClpP1P2, C7 symmetry imposed, 2.34 Å (free shClpP1P2 particles of the ClpC1 sample; a second reconstruction at 2.88 Å from the shClpP1P2 sample); SEC buffer 20 mM HEPES, 150 mM KCl, 5% glycerol, pH 7.5.
Test [4] concerns the target shClpP2 (first 49 residues removed, S131A) (Streptomyces hawaiiensis NRRL 15010). The test is described as above.

Stoichiometry N data for 4 substances are collected here from paper PMC11005422.

With “shClpP1 alone (sample of Fig. S1A) (enzyme)”, in test [1], the stoichiometry N – broadly, a count of units in the complex or per binding partner – worked out at 7. Take “ClpC1 (NTD residues 1-156 removed, E284A/E622A/F440A) (enzyme)”: the stoichiometry N in test [2] stood at 6. In test [3], “shClpP1 (first 29 residues removed, S113A) (enzyme)” gave a stoichiometry N of 7. With “shClpP2 (first 49 residues removed, S131A) (enzyme)”, the stoichiometry N in test [4] came to 7.
